Consider 13 molecules from patent EP4545563A1 (Foreseen Technology (Beijing) Co., Ltd., dated 2024).

For one test, the target named is T1, ITGA2-His (human, UniProt P17301 30-1132, limits assumed).
T1 construct: also called ITGA2 protein; not shown: His tag
T1 sequence (looked up): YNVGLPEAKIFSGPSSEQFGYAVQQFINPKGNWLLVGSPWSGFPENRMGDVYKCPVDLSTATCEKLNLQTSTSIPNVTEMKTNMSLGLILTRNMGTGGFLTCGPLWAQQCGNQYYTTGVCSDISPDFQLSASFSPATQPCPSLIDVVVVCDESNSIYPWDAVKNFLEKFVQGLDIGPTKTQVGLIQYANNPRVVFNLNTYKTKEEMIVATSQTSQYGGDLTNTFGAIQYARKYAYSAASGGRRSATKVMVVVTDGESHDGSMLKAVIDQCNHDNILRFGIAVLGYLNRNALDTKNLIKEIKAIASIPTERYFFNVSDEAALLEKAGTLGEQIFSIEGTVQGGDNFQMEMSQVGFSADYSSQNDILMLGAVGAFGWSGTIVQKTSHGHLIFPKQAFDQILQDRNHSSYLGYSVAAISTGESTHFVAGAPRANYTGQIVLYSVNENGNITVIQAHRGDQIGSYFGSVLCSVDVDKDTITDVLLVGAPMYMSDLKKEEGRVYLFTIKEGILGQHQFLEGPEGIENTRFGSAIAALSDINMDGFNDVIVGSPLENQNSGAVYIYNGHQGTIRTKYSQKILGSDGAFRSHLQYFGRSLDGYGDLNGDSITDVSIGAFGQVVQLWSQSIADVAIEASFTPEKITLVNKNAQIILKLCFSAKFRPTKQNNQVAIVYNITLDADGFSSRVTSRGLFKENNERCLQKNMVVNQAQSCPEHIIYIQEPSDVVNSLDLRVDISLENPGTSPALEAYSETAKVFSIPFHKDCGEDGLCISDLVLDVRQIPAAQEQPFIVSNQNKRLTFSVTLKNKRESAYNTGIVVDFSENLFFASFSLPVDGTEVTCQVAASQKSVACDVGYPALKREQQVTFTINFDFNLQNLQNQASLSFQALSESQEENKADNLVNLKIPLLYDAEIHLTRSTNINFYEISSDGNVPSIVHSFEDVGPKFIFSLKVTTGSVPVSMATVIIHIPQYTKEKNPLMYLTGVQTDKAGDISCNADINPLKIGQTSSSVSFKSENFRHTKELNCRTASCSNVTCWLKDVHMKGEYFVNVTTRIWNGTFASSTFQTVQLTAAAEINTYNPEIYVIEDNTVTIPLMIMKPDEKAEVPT
Kind of test: ELISA, plate coated with 2 ug/mL ITGA2-His, anti-human IgG-Fc-HRP detection.

Test [1] addresses T2, ITGA2 protein on the surface of human tumor cells (HuCCT1, A431) (human, UniProt P17301 30-1181).
T2 construct: whole, on cells; Endogenously expressed on the cell lines; the cell line of each entry is named under assay or readout; also called Integrin alpha-2; ITGA2-positive HuCCT1 cells
T2 sequence (looked up): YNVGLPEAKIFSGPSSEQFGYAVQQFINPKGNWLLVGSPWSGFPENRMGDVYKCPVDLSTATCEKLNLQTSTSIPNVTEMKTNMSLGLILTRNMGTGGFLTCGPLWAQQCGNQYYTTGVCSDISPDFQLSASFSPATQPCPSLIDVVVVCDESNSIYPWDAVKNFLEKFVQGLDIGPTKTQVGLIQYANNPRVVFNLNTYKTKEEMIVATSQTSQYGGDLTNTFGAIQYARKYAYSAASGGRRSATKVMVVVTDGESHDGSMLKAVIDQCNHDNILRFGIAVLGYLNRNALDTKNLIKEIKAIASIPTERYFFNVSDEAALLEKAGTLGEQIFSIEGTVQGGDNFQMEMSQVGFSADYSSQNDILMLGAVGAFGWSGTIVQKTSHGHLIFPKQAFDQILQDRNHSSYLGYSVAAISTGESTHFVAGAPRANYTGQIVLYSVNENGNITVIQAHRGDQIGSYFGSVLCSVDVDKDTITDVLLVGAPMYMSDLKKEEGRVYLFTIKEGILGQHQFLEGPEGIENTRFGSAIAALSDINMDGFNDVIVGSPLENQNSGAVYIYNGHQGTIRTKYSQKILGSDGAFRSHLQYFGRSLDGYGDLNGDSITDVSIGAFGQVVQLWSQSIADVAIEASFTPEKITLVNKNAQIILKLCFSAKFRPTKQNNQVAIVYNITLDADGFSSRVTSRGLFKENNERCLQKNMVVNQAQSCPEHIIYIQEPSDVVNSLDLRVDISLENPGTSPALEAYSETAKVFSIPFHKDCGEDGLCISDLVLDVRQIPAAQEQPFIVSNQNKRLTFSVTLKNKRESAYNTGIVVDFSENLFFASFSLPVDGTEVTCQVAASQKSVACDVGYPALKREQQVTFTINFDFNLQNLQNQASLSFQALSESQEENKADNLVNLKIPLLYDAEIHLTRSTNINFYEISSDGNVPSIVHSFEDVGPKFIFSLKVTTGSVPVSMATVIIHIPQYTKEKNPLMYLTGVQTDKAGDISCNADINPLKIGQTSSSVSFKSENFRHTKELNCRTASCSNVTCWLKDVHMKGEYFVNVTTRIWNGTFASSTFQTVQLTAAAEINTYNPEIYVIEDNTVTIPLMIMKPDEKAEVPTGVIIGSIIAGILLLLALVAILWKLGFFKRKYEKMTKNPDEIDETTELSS
In words: flow cytometry on HuCCT1 cells, goat anti-human IgG (H+L) secondary antibody.

B1: Vatelizumab (antibody, V domains shown)
VH: QVQLQESGPGLVKPSETLSLTCTVSGFSLTNYGIHWIRQPPGKGLEWLGVIWARGFTNYNSALMSRLTISKDNSKNQVSLKLSSVTAADTAVYYCARANDGVYYAMDYWGQGTLVTVSS
VL: DFVMTQSPAFLSVTPGEKVTITCSAQSSVNYIHWYQQKPDQAPKKLIYDTSKLASGVPSRFSGSGSGTDYTFTISSLEAEDAATYYCQQWTTNPLTFGQGTKVEIK
Turning to B1, the concentration giving a half-maximal response (EC50) with ITGA2-His is 0.023 nM; in test [1] it was 0.793 nM.

B2: Humanized antibody FS002-C417 (antibody, human IgG1, kappa, V domains shown)
VH: EVQLVESGGVVVQPGGSLRLSCAASGFTFDDYTMHWVRQAPGKGLEWVSLISWDGGSTYYADSVKGRFTISRDNAKNTLYLQMNSLRAEDTAVYYCARDTGYAMDVWGQGTMVTVSS
VL: NIQMTQSPSSLSASVGDRVTITCRASQSISSYLNWYQQKPGKAPKLLIYAASSLQSGVPSRFSGSGSGTDFTLTISSLQPEDFASYYCQQSYSSWAFGQGTKVEIKR
notes: IgG1 heavy chain, kappa light chain
With B2, the EC50 amounted to 0.156 nM in the test with ITGA2-His and 68.4 nM in test [1].

B3: Humanized antibody FS002-A1 (antibody, V domains shown)
VH: QVQLVQSGAEVKKPGASVKVSCKASGYTFTSYYMHWVRQAPGQGLEWMGIINPSGGSTSYAQKFQGRVTMTRDTSTSTVYMELSSLRSEDTAVYYCARDISGSYQTDAFDIWGQGTMVTVSS
VL: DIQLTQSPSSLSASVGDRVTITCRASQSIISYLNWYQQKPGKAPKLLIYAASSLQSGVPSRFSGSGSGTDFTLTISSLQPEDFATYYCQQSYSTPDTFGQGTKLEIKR
notes: IgG1 heavy chain, kappa light chain; expressed in ExpiCHO-s cells, Protein A purified
B3: the results for the EC50 (with ITGA2-His; in test [1]) were 0.029 nM and 0.653 nM, respectively.

B4: Humanized antibody FS002-C330 (antibody, V domains shown)
VH: QLQLQESGPGLVKPSGTLSLTCAVSGGSISSSNWWSWVRQPPGKGLEWIGEIYHSGSTNYNPSLKSRVTISVDKSKNQFSLKLSSVTAADTAVYYCARAHSRYYYGLDYWGQGTLVTVSS
VL: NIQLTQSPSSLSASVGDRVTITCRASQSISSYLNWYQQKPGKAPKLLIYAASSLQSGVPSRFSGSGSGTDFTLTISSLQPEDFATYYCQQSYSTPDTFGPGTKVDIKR
notes: as for B2
Regarding B4, the EC50 was 0.103 nM in the test with ITGA2-His and 2.07 nM in test [1].

B5: Humanized antibody FS002-A10 (antibody, human IgG1, kappa, V domains shown)
VH: QVQLQQSGPGLVKPSQTLSLTCAISGDSVSSDSAAWNWIRQSPSRGLEWLGRTYYRSKWYNDYAVSVKSRITINPDTSKNQFSLQLNSVTSDDTAVYYCARGSWAAPWLWGQGTLVTVSS
VL: NIQLTQSPPFLSASVGDRVTITCRASQDISSFLAWYQQKPGKAPNLLIHAATTLQSGVPSRFSGSGSGTEFTLTISSLRPEDFATYYCQQLHTYPITFGQGTRLEIKR
notes: as for B2
Regarding B5, the EC50 is 0.021 nM in the test with ITGA2-His and 1.13 nM in test [1].

B6: Humanized antibody FS002-C9 (antibody, human IgG1, kappa, V domains shown)
VH: QVQLLESGPGLVKPSQTVSLTCTVSGVSISRGVYSWSWIRQHPGKGLEWIGFIDYNGRTDYNPSLKSRVTISQDTSKNDFSLKLTSVTAADTAIYYCARGLHAFDIWGQGTMVTVSS
VL: NIQMTQSPPSLSASVGDRVAITCRASQDISNSLAWYQQKSGQPPKLLLYDVSKLERGVPSRFSGSGSRTDYTLTISSLQPEDFATYYCQQYSSDPTFGQGSKLEFKR
notes: as for B2
On to B6, for which the EC50 with ITGA2-His is 12.1 nM; in test [1], 34.6 nM.

B7: Humanized antibody FS002-C153 (antibody, human IgG1, lambda, V domains shown)
VH: QVQLQQWGAELVKPGASVKLSCTASGFNIKDTYMHWVKQRPEQGLEWIGRIDPANGNTKYDPKFQGKATITADTSSNTAYLQLSSLTSEDTAVYYCARSYYRYDGYFDVWGAGTMVTVSS
VL: QSALTQPASVSGSPGQSITISCTGTSSDVGGYNYVSWYQQHPGKAPKLMIYDVSNRPSGVSNRFSGSKSGNTASLTISGLQAEDEADYYCSSFTTITTRVFGGGTKLTVLG
notes: IgG1 heavy chain, lambda light chain
For the molecule B7, the results for the EC50 (in the test with ITGA2-His; in test [1]) were 0.087 nM and 3.63 nM, respectively.

B8: Humanized antibody FS002-A15 (antibody, human IgG1, kappa, V domains shown)
VH: RLQLQESGPGLVKPSQTLSLTCTVSGGSISSGGYYWSWIRQHPGKGLEWIGYIYYSGSTYYNPSLKSRVTISVDTSKNQFSLKLSSVTAADTAVYYCARATIYGYFDYWGQGTLVTVSS
VL: EIVLTQSPATLPLSPGERATLSCRASQSVGFYLAWYQQKPGQPPRLLFYDASKRATGIPARFSASGSGTDFTLTISGLEPEDFAVYYCQHRISWPLTFGQGTKVEVKR
notes: as for B2
Regarding B8, the EC50 with ITGA2-His came to 0.028 nM; in test [1] it was 0.927 nM.

B9: Humanized antibody FS002-C241 (antibody, human IgG1, lambda, V domains shown)
VH: RLQLQESGPGLVKPSETLSLTCTVSGGSISSSSYYWGWIRQPPGKGLEWIGSIYYSGSTYYNPSLKSRVTISVDTSKNQFSLKLSSVTAADTAVYYCARRYSYGRDAFDIWGQGTMVTVSS
VL: QSALTQPASVSGSPGQSITISCSGTSSDIGRYNYVSWYQQHPGKAPKLLIFDVSNRPSGVSNRFSGSKSGNTASLTISGLQAEDEADYYCSSYTSTVPYVFGTGTRVAVQG
notes: as for B7
On to B9, for which the EC50 with ITGA2-His is 0.116 nM; in test [1], 2.41 nM.

B10: Humanized antibody FS002-C216 (antibody, human IgG1, kappa, V domains shown)
VH: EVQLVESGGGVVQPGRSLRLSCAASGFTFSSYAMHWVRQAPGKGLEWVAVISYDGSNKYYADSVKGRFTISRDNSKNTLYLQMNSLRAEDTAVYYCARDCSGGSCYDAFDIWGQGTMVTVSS
VL: EIVLTQSPATLSLSPGERATLSCRASQSVSSYLAWYQQKPGQAPRLLIYDASNRATGIPARFSGSGSGTDFTLTISSLEPEDFAVYYCQQRTNWLMYTFGQGTKLEIKR
notes: as for B2
With B10, the values for the EC50 (in the test with ITGA2-His; in test [1]) were 0.073 nM and 0.987 nM, respectively.

B11: Humanized antibody FS002-C375 (antibody, human IgG1, kappa, V domains shown)
VH: QVQLQESGPGLVKPSQTLSLTCTVSGGSISSGGYYWSWIRQHPGKGLEWIGYIYYSGSTYYNPSLKSRVTISVDTSKNQFSLKLSSVTAADTAVYYCARVGVALHYGMDVWGQGTTVTVSS
VL: EIVLTQSPATLSLSPGERATLSCRASQSVSSYLAWYQQKPGQAPRLLIYDASNRATGIPARFSGSGSGTDFTLTISSLEPEDFAVYYCQQRSNWPLTFGGGTKVEIKR
notes: as for B2
Take B11: the EC50 with ITGA2-His is 0.073 nM; in test [1], 2.17 nM.

B12: Humanized antibody FS002-C58 (antibody, human IgG1, kappa, V domains shown)
VH: EVQLLESGGGVVQPGRSLRLSCAASGFTFSSYAMHWVRQAPGKGLEWVAVISYDGSNKYYADSVKGRFTISRDNSKNTLYLQMNSLRAEDTAVYYCARGKYNWFDPWGQGTLVTVSS
VL: EIVLTQSPATLSLSPGERATLSCRASQSVYSSLAWYQQKPGQAPKLLIYDASNRATGVPARFSGSGSGTDFTLTISSLEPEDFALYYCQHRQHWPLTFGGGTKVEIKR
notes: as for B2
Regarding B12, the values for the EC50 (in the test with ITGA2-His; in test [1]) were 0.279 nM and 9.48 nM, respectively.

B13: Humanized antibody FS002-C15 (antibody, human IgG1, kappa, V domains shown)
VH: QLQLQESGPGLVKPSETLSLTCTVSGGSISSSSYYWGWIRQPPGKGLEWIGSIYYSGSTYYNPSLKSRVTISVDTSKNQFSLKLSSVTAADTAVYYCARLTIFGVVLYWGQGTLVTVSS
VL: EIVLTQSPATLSLSPGERATLSCQASQTFSDYLAWYQQKPGQAPRLLIYDASTRATGIPARFSGSGSGTDFTLTISSLEPEDFAVYYCQQRSHWPPGYTFGQGTRVEIKR
notes: as for B2
Turning to B13, the EC50 amounted to 0.044 nM with ITGA2-His and 2.13 nM in test [1].
